We go through 39 sequences from the Immune Epitope Database (IEDB).

One assay has as its target HLA-B*15:03. Nature of the assay: IEDB peptide-MHC binding, purified MHC/competitive/radioactivity; filed as Kd, often an IC50 or EC50 that approximates it; ≥ and ≤ were set here for values at or beyond the usual limits of such assays.
In another assay the target is HLA-A*30:01. The description is as above. The conditions noted are these: source organism: Vaccinia virus WR.
The target in a further assay is HLA-A*32:01. Described as above.
Another assay concerns the target HLA-B*08:01. Described as above. The conditions noted are these: source organism: Vaccinia virus WR.
For another assay, the target named is HLA-B*15:01. The description is as above.
Another assay addresses HLA-A*02:01. The assay is described as above.
A further assay has as its target HLA-A*02:06. Described as above.
For the next assay, the target named is HLA-A*02:17. Described as above.
A further assay concerns the target HLA-B*51:01. Described as above.
Another assay concerns the target HLA-B*07:02. Described as above.
In a further assay the target is HLA-B*44:03. The description is as above. The conditions noted are these: source organism: Murray valley encephalitis virus (strain MVE-1-51).
The target in another assay is HLA-B*18:01. Nature of the assay: IEDB peptide-MHC binding, purified MHC/direct/fluorescence; filed as Kd, often an IC50 or EC50 that approximates it; ≥ and ≤ were set here for values at or beyond the usual limits of such assays.
The target in a further assay is HLA-A*02:02. Nature of the assay: IEDB peptide-MHC binding, purified MHC/competitive/radioactivity; filed as Kd, often an IC50 or EC50 that approximates it; ≥ and ≤ were set here for values at or beyond the usual limits of such assays.
Another assay concerns the target HLA-A*02:03. The assay is described as above.
The target of a further assay is HLA-A*68:02. The description is as above.
The target of another assay is HLA-B*35:01. The assay is described as above.
The target in another assay is HLA-A*24:03. Description: IEDB peptide-MHC binding, purified MHC/direct/fluorescence; filed as Kd, often an IC50 or EC50 that approximates it; ≥ and ≤ were set here for values at or beyond the usual limits of such assays.
Another assay deals with HLA-A*30:02. Description: IEDB peptide-MHC binding, purified MHC/competitive/radioactivity; filed as Kd, often an IC50 or EC50 that approximates it; ≥ and ≤ were set here for values at or beyond the usual limits of such assays. The following applies: source organism: Dengue virus 1 Brazil/97-11/1997.
Where [1] appears, read: source organism: Vaccinia virus WR.
Setting [2] is: source organism: Dengue virus 2 Jamaica/1409/1983.
Setting [3] is: source organism: Dengue virus 4 Philippines/H241/1956.
Where [4] appears, read: source organism: Dengue virus 3 Martinique/1243/1999.
[5] abbreviates: source organism: Trypanosoma cruzi.
[6] abbreviates: source organism: Lassa virus Josiah.
[7] abbreviates: source organism: Dengue virus 1 Brazil/97-11/1997.
Where [8] appears, read: source organism: Dengue virus 1 Nauru/West Pac/1974.
Where [9] appears, read: source organism: Dengue virus 3 China/80-2/1980.
The mark [10] stands for this setting: source organism: West Nile virus.
Setting [11] is: source organism: Vaccinia virus Copenhagen.

For the sequence KSHAAYIDY, the dissociation constant Kd – broadly, the free concentration of one partner at which half of the binding sites on the other are occupied at equilibrium, for simple one-to-one binding – is 1.67 nM with HLA-B*15:03 (setting [1]); 12 nM with HLA-A*30:01; 875 nM with HLA-A*32:01 (setting [1]); at least 77700 nM with HLA-B*08:01; 1.84 nM with HLA-B*15:01 (setting [1]).

Turning to KVLNPYMPSV, the dissociation constant (Kd) was 8.47 nM with HLA-A*02:01 (setting [2]), 5.56 nM in the assay with HLA-A*02:06 (setting [2]) and 26.4 nM in the assay with HLA-A*02:17 (setting [2]).

In the case of LAFITFLRV, the dissociation constant Kd with HLA-B*51:01 (setting [3]) came to 4240 nM.

Regarding LAHYIGTSL, the dissociation constant (Kd) with HLA-B*07:02 (setting [4]) was found to be 20 nM.

For the sequence LEFEALGFL, the results for the Kd with HLA-B*44:03 and in the assay with HLA-B*18:01 (source organism: Alkhumra hemorrhagic fever virus) were 4970 nM and 2.8 nM, respectively.

Regarding LLGLCGFSAL, the Kd in the assay with HLA-A*02:01 (setting [5]) is 365 nM; with HLA-A*02:02 (setting [5]), 10.4 nM; with HLA-A*02:06 (setting [5]), 629 nM; with HLA-A*02:03 (setting [5]), 14.1 nM; with HLA-A*68:02 (setting [5]), at least 125000 nM.

LLQSKNAGAV: in the assay with HLA-A*68:02 (source organism: Homo sapiens), the Kd was at least 65200 nM.

As for LMCHATFTM, the Kd with HLA-B*35:01 (setting [2]) was found to be 1600 nM; with HLA-B*15:01 (setting [2]), 9.45 nM.

As for LMSIISTFHL, the Kd stood at 100 nM in the assay with HLA-A*02:02 (setting [6]), 411 nM in the assay with HLA-A*02:06 (setting [6]), 122 nM with HLA-A*02:03 (setting [6]) and 361 nM with HLA-A*68:02 (setting [6]).

In the case of LPLPWLPGA, in the assay with HLA-B*51:01 (setting [2]), the equilibrium dissociation constant (Kd) is 651 nM.

In the case of LSIFFYSSF, the dissociation constant Kd with HLA-B*15:03 (setting [1]) was found to be 0.218 nM; in the assay with HLA-A*30:01, 131 nM; in the assay with HLA-A*32:01 (setting [1]) it was 129 nM; in the assay with HLA-B*15:01 (setting [1]) it was 17.3 nM.

As to MATYGWNLV, the dissociation constant (Kd) was found to be 1250 nM with HLA-B*51:01 (setting [7]) and 20.1 nM with HLA-A*68:02 (setting [7]).

For MGMGVTYLA, the Kd in the assay with HLA-A*68:02 (setting [4]) amounted to 31.9 nM.

As for MMATIGIALL, the Kd in the assay with HLA-A*02:01 (setting [2]) is 9.45 nM; in the assay with HLA-A*02:03 (setting [2]), 0.94 nM; in the assay with HLA-B*15:01 (setting [2]) it was 15 nM; with HLA-A*02:17 (setting [2]) it was 305 nM.

Consider MSFRDLGRV, for which the dissociation constant Kd with HLA-A*68:02 (setting [2]) is 19.6 nM.

For the sequence MVQADSGCVI, the Kd with HLA-B*51:01 (setting [7]) was at least 63900 nM.

Regarding NIVSSVNMV, in the assay with HLA-A*68:02 (source organism: Dengue virus 3 Sri Lanka/1266/2000), the Kd stood at 212 nM.

NPRLCTREE: the Kd with HLA-B*07:02 (setting [3]) stood at 213 nM.

For QIFGTAYGV, the dissociation constant (Kd) is 3.61 nM with HLA-A*02:06 (setting [8]) and 2.31 nM with HLA-A*68:02 (setting [8]).

On to QLWTALVSL, for which the values for the dissociation constant (Kd) with HLA-A*02:01 (setting [9]) and in the assay with HLA-A*02:17 (setting [9]) were 1.61 nM and 79.7 nM, respectively.

As to QPKPGTRMVM, the dissociation constant Kd came to 8.33 nM with HLA-B*07:02 (setting [3]) and 1230 nM with HLA-B*35:01 (setting [3]).

For RASSGDSSF, in the assay with HLA-B*15:03 (setting [1]), the dissociation constant Kd came out at 20.6 nM.

In the case of RQFYNANVL, the values for the Kd with HLA-B*15:03 (setting [1]) and with HLA-A*32:01 (setting [1]) were 0.236 nM and 37.2 nM, respectively.

In the case of RTLNELWFL, in the assay with HLA-A*24:03 (source organism: Escherichia coli O157:H7), the dissociation constant (Kd) is 3.5 nM.

With SKVFFGPIY, the Kd in the assay with HLA-B*15:03 (setting [1]) worked out at 1.02 nM.

Regarding SLNTLTISF, the dissociation constant Kd in the assay with HLA-B*15:03 (setting [1]) came to 475 nM.

In the case of SPGTSGSPIV, the Kd in the assay with HLA-B*07:02 (setting [2]) stood at 88.1 nM.

As to TLYAVATTFV, the Kd is 12.6 nM with HLA-A*02:01 (setting [2]), 2.65 nM in the assay with HLA-A*02:03 (setting [2]), 11.5 nM with HLA-A*68:02 (setting [2]) and 490 nM with HLA-A*02:17 (setting [2]).

Consider TPPGTADAF, for which, in the assay with HLA-B*35:01 (setting [4]), the dissociation constant (Kd) is 278 nM.

Turning to TSVGVNMCTL, the Kd with HLA-A*68:02 (source organism: Dengue virus 1 Singapore/S275/1990) amounted to 37.5 nM.

On to TTSGTYVSA, for which the Kd with HLA-A*68:02 (setting [7]) was determined as 24 nM.

In turn, TYGVCSKAF gave a Kd with HLA-A*24:03 (setting [10]) of 24.5 nM.

In the assay with HLA-B*18:01 (setting [10]), VEGLGLQKL returned a dissociation constant Kd of 1280 nM.

For the sequence VSFNRVVIF, the Kd with HLA-B*15:03 (setting [11]) worked out at 1.05 nM; with HLA-A*32:01 (setting [11]), 559 nM.

In the case of WLVHKQWFL, the Kd worked out at 3.99 nM with HLA-A*02:01 (setting [3]), 93.4 nM with HLA-A*02:06 (setting [7]) and 15 nM in the assay with HLA-A*02:17 (setting [3]).

With WPISKMDLGV, in the assay with HLA-B*51:01 (setting [7]), the Kd is 3160 nM.

Take WTLYAVATTV: the equilibrium dissociation constant (Kd) with HLA-A*02:06 (setting [7]) is 90.1 nM; with HLA-A*68:02 (setting [7]), 1.57 nM.

For the sequence YAMCLNTFVL, the Kd in the assay with HLA-A*02:01 (setting [9]) worked out at 11.4 nM; in the assay with HLA-B*35:01 (source organism: Dengue virus 3 Singapore/8120/1995) it was 43.4 nM; in the assay with HLA-A*02:17 (setting [9]) it was 110 nM.

YGGPISQHNY: the dissociation constant (Kd) turned out to be 192 nM with HLA-A*30:02 and 406 nM with HLA-B*35:01 (setting [7]).
